Reference: paper doi:10.1101/864769

Biological target: CP-capped actin filament barbed ends (not stated | chicken) (UniProt P60709)
Assay: single-filament uncapping assay

Kd: 300 nM
Substance: mouse twinfilin-1 (from UniProt Q91YR1 1-350) (natural protein)
